Assay results: patent US20070254831A1 (published 2007)
Read-outs that look alike come from different tables or passages of the source. Values belong to the binder of their own block, whether it stands above or below them. Bridge positions count the residues as written; N and C are the ends. Square brackets hold non-standard residues; d marks the D form. Ends that are not written are not given here. NMeA = CN[C@@H](C)C(=O)O

What was measured:
[1] = molecular target: T1, soluble human FcRn (human, UniProt P55899 24-297; P61769 21-119, biotinylated (Sulfo-NHS-LC-Biotin) in the ELISA; amine-coupled to CM5 chip in SPR); experiment: SPR, pH 6
T1 construct: also called shFcRn; biotinylated shFcRn
Description: (§1) The following steps were performed to cross-link soluble human or cynomolgus FcRn to the dextran surface of a CM5 sensor chip (Biacore AB, Uppsala, Sweden) by an amine coupling reaction involving 1-ethyl-(3-dimethylaminopropyl)-carbodiimide hydrochloride (EDC) (Biacore AB, Uppsala, Sweden) and N-hydroxysuccinimide (NHS) (Biacore AB, Uppsala, Sweden) as recommended by Biacore (BIAapplications Handbook, version AB, section 4.2, Biacore AB, Uppsala, Sweden). […] Residual sites on the FcRn flow cell were blocked with 1 M ethanolamine hydrochloride pH 8.5 (Biacore AB, Uppsala, Sweden). A control flow cell was blocked with ethanolamine for reference subtraction. For analysis of the monomeric peptides, FcRn was coated to a final density of 4000-5000 response units (RU). For analysis of the peptide dimers, FcRn was coated to a density of 2000-2500 RU. All SPR measurements were performed using a BIACORE 3000 Instrument (Biacore AB Uppsala, Sweden). For measurements done at either pH 6 or pH 7.4, experiments were performed in 50 mM phosphate, 100 mM sodium chloride, 0.01% surfactant P20 (Biacore AB, Uppsala, Sweden).
(§2) Ten, 2-fold dilutions of the peptide were injected over the FcRn-CM5 chip at a rate of 20 μl/min for 2 min. The peptide was dissociated from the chip for 2.5 minutes with buffer. Any remaining peptide was removed from the chip with a 30 second injection of HBS-P buffer (Biacore AB, Uppsala, Sweden) at a rate of 30 μl/min. Sensorgrams were generated and analyzed using BiaEval software version 3.1 (Biacore AB, Uppsala, Sweden). The equilibrium RU observed for each injection was plotted against concentration. The equilibrium KD values were derived by analysis of the plots using the steady state affinity model included in the BiaEval software.

[2] = molecular target: T1, soluble human FcRn; experiment: SPR, pH 6; remark: listed apart in the source
Description: as §1, §2

[3] = molecular target: T1, soluble human FcRn; experiment: SPR, pH 7.4
Description: as §1, §2

[4] = molecular target: T1, soluble human FcRn; experiment: ELISA, competitor human IgG
Description: (§3) The wells were coated with 100 μl/well of 1 μg/ml biotinylated-shFcRn in Buffer A. The plate was sealed and incubated at 37° C. for 2 hours. Afterwards, the plate washed with 200 μl/well of Buffer B (Buffer B: 100 mM MES pH 6, 150 mM NaCl, 0.5% BSA IgG-free (Jackson ImmunoResearch, West Grove, Pa.), 0.05% Tween-20). […] To allow for mixing, the plate was rocked for 2 minutes, sealed and incubated at 37° C. for 2 hours. […] The plate was covered, incubated for 30 minutes at room temperature and washed 4 times with 200 μl/well of ice-cold buffer B. SureBlue TMB substrate solution (100 μl/well, KPL, Gaithersburg, Md.) was added and the plate was allowed to incubate at room temperature until color developed, which took 5 to 10 minutes. Once color developed, 100 μl/well of TMB stop solution (KPL, Gaithersburg, Md.) was added and the absorbance was measured at 450 nm. The data was plotted as absorbance vs. peptide concentration to derive the inhibitory concentration 50% (IC₅₀) values.

[5] = molecular target: T1, soluble human FcRn; experiment: SPR, pH 6; remark: listed apart in the source
Description: as §1, §2

[6] = molecular target: T1, soluble human FcRn; experiment: ELISA, competitor human IgG; remark: listed apart in the source
Description: as §3

[7] = molecular target: T1, soluble human FcRn; experiment: SPR, pH 6; remark: listed apart in the source
Description: as §1, §2

[8] = molecular target: T1, soluble human FcRn; experiment: ELISA, competitor human IgG; remark: listed apart in the source
Description: as §3

[9] = molecular target: T1, soluble human FcRn; experiment: ELISA, competitor human IgG; remark: listed apart in the source
Description: as §3

[10] = molecular target: T1, soluble human FcRn; experiment: SPR, pH 6; remark: listed apart in the source
Description: as §1, §2

[11] = molecular target: T1, soluble human FcRn; experiment: ELISA, competitor human IgG; remark: listed apart in the source
Description: as §3

[12] = molecular target: T1, soluble human FcRn; experiment: ELISA, competitor human IgG; remark: listed apart in the source
Description: as §3

B4: Peptide No. 255 (peptide)
peptide: RFXTGKFGGLYPC
modifications: Pen at 3; Sar at 9; NMeLeu at 10; disulfide; C-terminal amide
Kd [2]: 1300 nM
Kd [3]: 1100 nM
IC50 [4]: 40 µM

B7: Peptide No. 114 (peptide)
peptide: QRFXTGHFGGLYPCNGP
modifications: Pen at 4; NMeTyr at 12; disulfide; C-terminal amide
Kd [5]: 92 µM
IC50 [6]: > 125 µM

B8: Peptide No. 257 (peptide)
peptide: RFXTGXFGGLYPC
modifications: Pen at 3; 4GuanylPhe at 6; Sar at 9; NMeLeu at 10; disulfide; C-terminal amide
Kd [2]: 74 nM
Kd [3]: 73 nM

B12: Peptide No. 251 (peptide)
peptide: RFXTGXFGGLYPC
modifications: not fully specified; Pen at 3; ThienylAla at 6; Sar at 9; NMeLeu at 10; disulfide; C-terminal amide
Kd [2]: 2000 nM
Kd [3]: 3000 nM
IC50 [4]: 45 µM

B14: Peptide No. 33 (peptide)
peptide: QRFCTGHFGGLYPXNGP
modifications: Pen at 14; disulfide; C-terminal amide
IC50 [9]: 18 µM

B16: Peptide No. 59 (peptide)
peptide: QRFXTGHXGGLYPCNGP
modifications: Pen at 4; 3-PyridylAla at 8; disulfide; C-terminal amide
Kd [1]: 19 µM
IC50 [8]: 60 µM

B18: Peptide No. 88 (peptide)
peptide: QRFXTGHXGGLYPCNGP
modifications: Pen at 4; 2-MePhe at 8; disulfide; C-terminal amide
Kd [1]: 0.2 µM
IC50 [8]: 1 µM

B22: Peptide No. 62 (peptide)
peptide: QRFXTGHXGGLYPCNGP
modifications: Pen at 4; 2-napthylalanine at 8; disulfide; C-terminal amide
Kd [1]: 11 µM
IC50 [8]: 90 µM

B23: Peptide No. 34 (peptide)
peptide: QRFXTGHFGGLYPXNGP
modifications: Pen at 4 and 14; disulfide; C-terminal amide
Kd [7]: 370 nM
IC50 [9]: 2 µM

B24: Peptide No. 259 (peptide)
peptide: RFXTGXFGGLYPC
modifications: not fully specified; Pen at 3; His(Me) (mono-methylated histidine) at 6; disulfide; C-terminal amide
Kd [2]: 140 nM
Kd [3]: 380 nM
IC50 [4]: 2.9 µM

B26: Peptide No. 268 (peptide)
peptide: RFXTGXFGGLYPC
modifications: Pen at 3; 4-PyridylAla at 6; Sar at 9; NMeLeu at 10; disulfide; C-terminal amide
Kd [2]: 67 nM
Kd [3]: 280 nM
IC50 [4]: 1.3 µM

B27: Peptide No. 28 (peptide)
peptide: QRFXTGHFGGLYPXNGP
modifications: hC at 4 and 14; disulfide; C-terminal amide
Kd [7]: 3800 nM
IC50 [9]: 20 µM

B30: Peptide No. 55 (peptide)
peptide: QRFXTGHXGGLYPCNGP
modifications: Pen at 4; 4-amino-Phe at 8; disulfide; C-terminal amide
Kd [1]: 1 µM

B31: Peptide No. 239 (peptide)
peptide: RFXTGHFXLYPC
modifications: Pen at 3; X at 8 = 3(S)-3-amino-2-oxo-1-azepine acetic acid; NMeLeu at 9; disulfide; C-terminal amide
IC50 [11]: 620 nM

B32: Peptide No. 29 (peptide)
peptide: QRF[dC]TGHFGGLYPCNGP-NH2
modifications: disulfide 4-14 (inferred)
IC50 [9]: > 125 µM

B36: Peptide No. 196 (peptide)
peptide: QRFC[NMeA]GHFGGLYPCNGP-NH2
modifications: disulfide 4-14 (inferred)
Kd [5]: 18 µM
IC50 [6]: 169 µM

B37: SEQ ID NO:34 (peptide)
peptide: QRFCTGHFGGLAPCNGP-NH2
modifications: disulfide 4-14 (inferred)
IC50 [12]: > 125 µM

B40: SEQ ID NO:29 (peptide)
peptide: QRFCTGAFGGLYPCNGP-NH2
modifications: disulfide 4-14 (inferred)
IC50 [12]: > 125 µM

B42: Peptide No. 69 (peptide)
peptide: QRFXTGHFGGLYPXNGP
modifications: Pen at 4; hC at 14; disulfide; C-terminal amide
IC50 [9]: 2 µM

Next, values leading:

Kd [1]: 70 µM
B1: Peptide No. 57 (peptide)
peptide: QRFXTGHXGGLYPCNGP
modifications: Pen at 4; pentafluoro-Phe at 8; disulfide; C-terminal amide

Kd [1]: 270 µM
B2: Peptide No. 94 (peptide)
peptide: QRFXTGHXGGLYPCNGP
modifications: Pen at 4; PheNHAc at 8; disulfide; C-terminal amide

Kd [2]: 64 nM
Kd [3]: 260 nM
IC50 [4]: 1.2 µM
B3: Peptide No. 250 (peptide)
peptide: RFXTGXFGGLYPC
modifications: Pen at 3; 3PyridylAla at 6; Sar at 9; NMeLeu at 10; disulfide; C-terminal amide

Kd [2]: 500 nM
Kd [3]: 500 nM
IC50 [4]: 5.5 µM
B5: Peptide No. 256 (peptide)
peptide: RFXTGRFGGLYPC
modifications: Pen at 3; Sar at 9; NMeLeu at 10; disulfide; C-terminal amide

Kd [2]: 190 nM
Kd [3]: 460 nM
IC50 [4]: 4.4 µM
B6: Peptide No. 260 (peptide)
peptide: RFXTGXFGGLYPC
modifications: Pen at 3; His(Me)2 (di-methylated histidine) at 6; disulfide; C-terminal amide

Kd [7]: 2100 nM
B9: Peptide No. 70 (peptide)
peptide: QRFXTGHFGGLYPXNGP
modifications: hC at 4; Pen at 14; disulfide; C-terminal amide

Kd [1]: 18 µM
IC50 [8]: 100 µM
B10: Peptide No. 56 (peptide)
peptide: QRFXTGHXGGLYPCNGP
modifications: Pen at 4; 4-methoxy-Phe at 8; disulfide; C-terminal amide

Kd [1]: 0.2 µM
B11: Peptide No. 90 (peptide)
peptide: QRFXTGHXGGLYPCNGP
modifications: Pen at 4; 4-MePhe at 8; disulfide; C-terminal amide

Kd [7]: 3900 nM
IC50 [9]: 21 µM
B13: Peptide No. 27 (peptide)
peptide: QRFCTGHFGGLYPXNGP
modifications: hC (L-homocysteine) at 14; disulfide; C-terminal amide

Kd [10]: 180 µM
B15: Peptide No. 68 (peptide)
peptide: QRFXTGHFGGLXPCNGP
modifications: Pen at 4; 4-nitro-Phe at 12; disulfide; C-terminal amide

IC50 [6]: > 125 µM
B17: Peptide No. 108 (peptide)
peptide: QRFXTGHFGGLYPCNGP
modifications: Pen at 4; Sar at 6; disulfide; C-terminal amide

Kd [5]: 0.086 µM
IC50 [6]: 1.6 µM
B19: Peptide No. 113 (peptide)
peptide: QRFXTGHFGGLYPCNGP
modifications: Pen at 4; NMeLeu at 11; disulfide; C-terminal amide

Kd [10]: 290 µM
B20: Peptide No. 87 (peptide)
peptide: QRFXTGHFGGLXPCNGP
modifications: Pen at 4; 2-nitro-Tyr at 12; disulfide; C-terminal amide

Kd [5]: 2 µM
B21: Peptide No. 111 (peptide)
peptide: QRFXTGHFGGLYPCNGP
modifications: Pen at 4; Sar at 9; disulfide; C-terminal amide

Kd [1]: 0.67 µM
IC50 [8]: 4.1 µM
B25: Peptide No. 89 (peptide)
peptide: QRFXTGHXGGLYPCNGP
modifications: Pen at 4; 3-MePhe at 8; disulfide; C-terminal amide

Kd [7]: 280 nM
IC50 [9]: 1.6 µM
B28: Peptide No. 295 (peptide)
peptide: QRFXTGHFGPLYPXNGP
modifications: Pen at 4 and 14; D-Pro at 10; disulfide; C-terminal amide

IC50 [6]: 0.9 µM
B29: Peptide No. 112 (peptide)
peptide: QRFXTGHFGGLYPCNGP
modifications: Pen at 4; Sar at 10; disulfide; C-terminal amide

Kd [10]: 72 µM
B33: Peptide No. 65 (peptide)
peptide: QRFXTGHFGGLXPCNGP
modifications: Pen at 4; pentafluoroPhe at 12; disulfide; C-terminal amide

Kd [2]: 5200 nM
Kd [3]: 6400 nM
IC50 [4]: 85 µM
B34: Peptide No. 264 (peptide)
peptide: RFXTGXFGGLYPC
modifications: Pen at 3; 4-PiperidylAla at 6; Sar at 9; NMeLeu at 10; disulfide; C-terminal amide

Kd [10]: 230 µM
B35: Peptide No. 26 (peptide)
peptide: QRFCTGHFGGLFPCNGP-NH2
modifications: disulfide 4-14 (inferred)

IC50 [12]: > 125 µM
B38: SEQ ID NO:32 (peptide)
peptide: QRFCTGHFGALYPCNGP-NH2
modifications: disulfide 4-14 (inferred)

IC50 [12]: > 125 µM
B39: SEQ ID NO:28 (peptide)
peptide: QRFCTAHFGGLYPCNGP-NH2
modifications: disulfide 4-14 (inferred)

IC50 [12]: > 125 µM
B41: SEQ ID NO:30 (peptide)
peptide: QRFCTGHAGGLYPCNGP-NH2
modifications: disulfide 4-14 (inferred)
